Among the data in doi:10.1101/2021.04.06.21255004 are Kd values, retold here.

Test [1] concerns the target Endothelial nitric oxide synthase (Homo sapiens*) (UniProt P29474).
Test [2] concerns the target purified human alpha globin (human) (UniProt P69905). Kind of test: BLI. (Biolayer interferometry detects binding as a change in optical thickness at a sensor tip.)

Sequence of Alpha globin (P69905 2-142): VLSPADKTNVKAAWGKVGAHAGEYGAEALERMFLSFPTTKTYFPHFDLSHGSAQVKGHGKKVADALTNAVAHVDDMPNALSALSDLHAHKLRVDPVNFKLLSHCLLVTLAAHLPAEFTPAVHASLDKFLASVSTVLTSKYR
Sequence of recombinant human eNOS oxidase domain (domain or fragment) (P29474 2-1203): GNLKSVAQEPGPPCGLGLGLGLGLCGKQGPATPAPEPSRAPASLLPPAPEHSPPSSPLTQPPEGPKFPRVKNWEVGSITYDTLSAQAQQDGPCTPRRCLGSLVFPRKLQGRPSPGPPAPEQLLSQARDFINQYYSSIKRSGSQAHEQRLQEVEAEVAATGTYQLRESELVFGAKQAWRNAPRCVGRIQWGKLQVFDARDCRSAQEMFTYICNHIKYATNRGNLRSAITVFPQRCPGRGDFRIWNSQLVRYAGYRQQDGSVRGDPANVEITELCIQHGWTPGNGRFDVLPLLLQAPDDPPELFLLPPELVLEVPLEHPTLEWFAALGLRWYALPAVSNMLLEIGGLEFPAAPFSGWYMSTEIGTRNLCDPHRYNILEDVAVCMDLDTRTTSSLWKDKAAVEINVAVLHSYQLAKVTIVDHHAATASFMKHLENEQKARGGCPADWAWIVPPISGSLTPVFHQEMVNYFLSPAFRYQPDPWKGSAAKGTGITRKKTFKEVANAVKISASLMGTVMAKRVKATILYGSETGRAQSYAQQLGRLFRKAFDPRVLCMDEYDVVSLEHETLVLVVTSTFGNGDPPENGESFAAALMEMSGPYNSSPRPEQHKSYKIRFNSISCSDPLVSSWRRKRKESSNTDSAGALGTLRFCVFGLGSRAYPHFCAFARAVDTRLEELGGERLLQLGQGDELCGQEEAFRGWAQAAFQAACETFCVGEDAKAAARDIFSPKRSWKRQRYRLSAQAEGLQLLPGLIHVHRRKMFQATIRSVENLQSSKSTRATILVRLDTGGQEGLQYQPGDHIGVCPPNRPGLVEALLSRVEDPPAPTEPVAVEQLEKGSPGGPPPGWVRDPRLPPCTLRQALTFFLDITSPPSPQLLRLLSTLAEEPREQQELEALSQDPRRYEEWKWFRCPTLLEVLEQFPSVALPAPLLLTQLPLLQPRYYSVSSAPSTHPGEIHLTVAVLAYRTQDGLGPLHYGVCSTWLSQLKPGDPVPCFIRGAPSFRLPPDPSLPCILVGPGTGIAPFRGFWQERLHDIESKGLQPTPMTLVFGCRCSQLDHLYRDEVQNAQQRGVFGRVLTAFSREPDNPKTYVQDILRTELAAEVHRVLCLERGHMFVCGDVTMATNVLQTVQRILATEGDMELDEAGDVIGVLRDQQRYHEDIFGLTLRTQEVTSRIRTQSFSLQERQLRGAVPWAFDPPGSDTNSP
Sequence of Endothelial nitric oxide synthase (Homo sapiens*) (P29474 66-492): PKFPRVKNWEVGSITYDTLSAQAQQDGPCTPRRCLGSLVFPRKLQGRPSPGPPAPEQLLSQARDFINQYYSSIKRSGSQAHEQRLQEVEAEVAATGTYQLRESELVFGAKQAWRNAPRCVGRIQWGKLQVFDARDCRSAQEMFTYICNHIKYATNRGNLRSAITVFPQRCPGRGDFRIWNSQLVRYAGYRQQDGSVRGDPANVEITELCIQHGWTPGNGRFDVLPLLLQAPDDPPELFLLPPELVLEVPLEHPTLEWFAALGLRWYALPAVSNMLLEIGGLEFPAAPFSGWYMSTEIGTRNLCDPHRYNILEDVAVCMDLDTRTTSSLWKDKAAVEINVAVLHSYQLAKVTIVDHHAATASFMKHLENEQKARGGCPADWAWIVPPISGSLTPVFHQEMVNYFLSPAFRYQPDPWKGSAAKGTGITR
Sequence of purified human alpha globin (human) (P69905 whole entry): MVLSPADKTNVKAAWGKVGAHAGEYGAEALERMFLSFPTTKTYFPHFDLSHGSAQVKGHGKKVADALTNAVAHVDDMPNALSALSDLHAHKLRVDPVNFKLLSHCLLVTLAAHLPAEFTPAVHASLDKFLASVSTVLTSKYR

What is called Kd is the constant that tells how readily two partners part at equilibrium. Substance Alpha globin (from UniProt P69905) had a dissociation constant (Kd) in test [1] of 1.3 µM.
In the case of “recombinant human eNOS oxidase domain (domain or fragment)”, in test [2], the Kd was found to be 1.31 µM.
